# B1: KDM4A: human lysine-specific demethylase 4A overexpressed in bMSCs from pMXs retroviral vector (protein, UniProt O75164 2-1064, looked up)
# Lysine-specific demethylase 4A: ASESETLNPSARIMTFYPTMEEFRNFSRYIAYIESQGAHRAGLAKVVPPKEWKPRASYDDIDDLVIPAPIQQLVTGQSGLFTQYNIQKKAMTVREFRKIANSDKYCTPRYSEFEELERKYWKNLTFNPPIYGADVNGTLYEKHVDEWNIGRLRTILDLVEKESGITIEGVNTPYLYFGMWKTSFAWHTEDMDLYSINYLHFGEPKSWYSVPPEHGKRLERLAKGFFPGSAQSCEAFLRHKMTLISPLMLKKYGIPFDKVTQEAGEFMITFPYGYHAGFNHGFNCAESTNFATRRWIEYGKQAVLCSCRKDMVKISMDVFVRKFQPERYKLWKAGKDNTVIDHTLPTPEAAEFLKESELPPRAGNEEECPEEDMEGVEDGEEGDLKTSLAKHRIGTKRHRVCLEIPQEVSQSELFPKEDLSSEQYEMTECPAALAPVRPTHSSVRQVEDGLTFPDYSDSTEVKFEELKNVKLEEEDEEEEQAAAALDLSVNPASVGGRLVFSGSKKKSSSSLGSGSSRDSISSDSETSEPLSCRAQGQTGVLTVHSYAKGDGRVTVGEPCTRKKGSAARSFSERELAEVADEYMFSLEENKKSKGRRQPLSKLPRHHPLVLQECVSDDETSEQLTPEEEAEETEAWAKPLSQLWQNRPPNFEAEKEFNETMAQQAPHCAVCMIFQTYHQVEFGGFNQNCGNASDLAPQKQRTKPLIPEMCFTSTGCSTDINLSTPYLEEDGTSILVSCKKCSVRVHASCYGVPPAKASEDWMCSRCSANALEEDCCLCSLRGGALQRANDDRWVHVSCAVAILEARFVNIAERSPVDVSKIPLPRFKLKCIFCKKRRKRTAGCCVQCSHGRCPTAFHVSCAQAAGVMMQPDDWPFVVFITCFRHKIPNLERAKGALQSITAGQKVISKHKNGRFYQCEVVRLTTETFYEVNFDDGSFSDNLYPEDIVSQDCLQFGPPAEGEVVQVRWTDGQVYGAKFVASHPIQMYQVEFEDGSQLVVKRDDVYTLDEELPKRVKSRLSVASDMRFNEIFTEKEVKQEKKRQRVINSRYREDYIEPALYRAIME
# How the values were obtained:
# H3K9me3 = experiment: Immunostaining of H3K9me3 in bMSCs; assay type: cell-based, bovine; details: bMSCs overexpressing human KDM4A vs retroviral vector control
# Method: (§1) Immunostaining: For immunofluorescence, the cells were first fixed in 4% PFA for 15 min at room temperature. Following fixation, the cells were treated with 0.5% Triton X-100 in PBS for 15 min at room temperature for cell membrane permeabilization. After blocking with goat serum (Cell Signaling Technology, Danvers, MA, USA), the cells were incubated in goat serum containing primary antibodies for 2 h at 37° C., followed by secondary antibodies at room temperature for 1 h. Cells were counter-stained with DAPI and imaged under a Nikon fluorescence microscope. Primary antibodies including rabbit anti-OCT4 (Santa Cruz, CA, USA), rabbit anti-SOX2 (Merck Millipore), and mouse anti-NANOG (Merck Millipore) were used at 1:100 dilution while mouse anti-AFP (1:50; Cloud-clone Corp., TX, USA), rabbit anti-TUJ1 (1:500) and mouse anti-SMA (1:400) (Thermo Fisher Scientific) were diluted variously according to their manufacturer's instructions. Alexa Fluor 488 or 594 conjugated goat anti-rabbit or goat anti-mouse secondary antibody (Cell Signaling Technology) were used in 1:1000 dilution. For cell surface marker staining, the cells in different reprogramming conditions were stained with NL557-conjugated TRA-1-60 (1:100), SSEA-3 (1:50; R&D Systems, Minneapolis, MN, USA) and Alexa Fluor 594 conjugated SSEA-4 (1:100; BioLegend, San Diego, CA, USA) according to the manufacturer's protocol.
# H3K9me2 = experiment: Immunostaining of H3K9me2 in bMSCs; assay type: cell-based, bovine; details: bMSCs overexpressing human KDM4A vs vector control
# Method: as §1
molecule,measurement,setting,value
B1,H3K9me3 by immunostaining,H3K9me3,reduced
same,H3K9me2 by immunostaining,H3K9me2,not
